Literature values, collected in PMC9686918.

Target: myeloperoxidase (Homo sapiens) (UniProt P05164)
Sequence (P05164 165-273): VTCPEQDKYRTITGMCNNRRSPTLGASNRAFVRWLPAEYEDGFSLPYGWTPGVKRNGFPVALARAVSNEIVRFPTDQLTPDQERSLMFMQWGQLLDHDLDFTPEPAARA

Kd: 20 µM
Substance: human serum albumin (from UniProt P02768)
